Results on twelve molecules are retold here after patent US20200157223A1 (SHANGHAI JMT BIO TECHNOLOGY, published 2020).

Assay [1] concerns the target T1, CD47 on the cell surface (A431, Raji, SKBR-3, NCI-H441, NK92MI-CD16a cells) (human, UniProt Q08722 19-323). As to the kind of experiment: cell-based or functional assay.
For assay [2], the target named is T1, CD47 on the cell surface (A431, Raji, …). As to the kind of experiment: flow cytometry on A431 cells (no CD20).
In assay [3] the target is T2, CD47-His (12283-H08H-200, Sino Biological) (human, UniProt Q08722 19-139).
T2 construct: Bought protein coated on ELISA plates; also called CD47 antigen; human CD47 (protein level); not shown: His tag
Kind of assay: ELISA on coated CD47-His. A general note: In an ELISA, binding on a coated surface is turned into a signal by an enzyme label.

In assay [4] the target is T1, CD47 on the cell surface (A431, Raji, …). Kind of assay: flow cytometry on NCI-H441 cells. For orientation: A flow cytometer gives signals particle by particle.
Assay [5] has the same target. As to the kind of experiment: flow cytometry on Raji cells.
For assay [6] the target is unchanged. Kind of assay: flow cytometry on A431 cells.
For assay [7] the target is unchanged. As to the kind of experiment: flow cytometry on SKBR-3 cells.
For assay [8] the target is unchanged. As to the kind of experiment: flow cytometry on IFN-γ-stimulated NCI-H441 cells.

B1: Obi-Fc1-D1-Fc2 (bispecific antibody)
heavy: not shown
light: DIVMTQTPLSLPVTPGEPASISCRSSKSLLHSNGITYLYWYLQKPGQSPQLLIYQMSNLVSGVPDRFSGSGSGTDFTLKISRVEAEDVGVYYCAQNLELPYTFGGGTKVEIKRTVAAPSVFIFPPSDEQLKSGTASVVCLLNNFYPREAKVQWKVDNALQSGNSQESVTEQDSKDSTYSLSSTLTLSKADYEKHKVYACEVTHQGLSSPVTKSFNRGEC
chain: not shown
Turning to B1, in assay [1], the “toxic side effects caused by NK cells (ADCC on NK92MI-CD16a cells), reduction against the D1^m proteins” value is ≥ 1000 fold.

B2: Anti-CD20 mAb (Obinutuzumab) (antibody, human IgG1, kappa)
heavy: not shown
light: DIVMTQTPLSLPVTPGEPASISCRSSKSLLHSNGITYLYWYLQKPGQSPQLLIYQMSNLVSGVPDRFSGSGSGTDFTLKISRVEAEDVGVYYCAQNLELPYTFGGGTKVEIKRTVAAPSVFIFPPSDEQLKSGTASVVCLLNNFYPREAKVQWKVDNALQSGNSQESVTEQDSKDSTYSLSSTLTLSKADYEKHKVYACEVTHQGLSSPVTKSFNRGEC
notes: also called Anti-CD20 (Obinutuzumab)
Consider B2, for which the binding result in assay [2] is reported as “no binding”.

B3: Obi-Fc1-D1-D2-D3-Fc2 (bispecific antibody)
heavy: not shown
light: DIVMTQTPLSLPVTPGEPASISCRSSKSLLHSNGITYLYWYLQKPGQSPQLLIYQMSNLVSGVPDRFSGSGSGTDFTLKISRVEAEDVGVYYCAQNLELPYTFGGGTKVEIKRTVAAPSVFIFPPSDEQLKSGTASVVCLLNNFYPREAKVQWKVDNALQSGNSQESVTEQDSKDSTYSLSSTLTLSKADYEKHKVYACEVTHQGLSSPVTKSFNRGEC
chain: not shown
As for B3, in assay [1], the “toxic side effects caused by NK cells (ADCC on NK92MI-CD16a cells), reduction against the D1^m proteins” value was ≥ 1000 fold.

B4: Obi-Fc1-D1-D2-Fc2 (bispecific antibody)
heavy: not shown
light: DIVMTQTPLSLPVTPGEPASISCRSSKSLLHSNGITYLYWYLQKPGQSPQLLIYQMSNLVSGVPDRFSGSGSGTDFTLKISRVEAEDVGVYYCAQNLELPYTFGGGTKVEIKRTVAAPSVFIFPPSDEQLKSGTASVVCLLNNFYPREAKVQWKVDNALQSGNSQESVTEQDSKDSTYSLSSTLTLSKADYEKHKVYACEVTHQGLSSPVTKSFNRGEC
chain: not shown
As for B4, in assay [1], the “toxic side effects caused by NK cells (ADCC on NK92MI-CD16a cells), reduction against the D1^m proteins” value is ≥ 1000 fold.

B5: Anti-EGFR mAb (JMT101) (antibody, human IgG1, kappa, V domains shown)
VH: QVQLQESGPGLVKPSETLSLTCTVSGFSLSNYDVHWVRQAPGKGLEWLGVIWSGGNTDYNTPFTSRLTISVDTSKNQFSLKLSSVTAADTAVYYCARALDYYDYEFAYWGQGTLVTVSS
VL: EIVLTQSPDFQSVTPKEKVTITCRASQSIGTNIHWYQQKPDQSPKLLIKYASESISGIPSRFSGSGSGTDFTLTINSLEAEDAATYYCQQNNEWPTSFGQGTKLEIKR
notes: Humanized anti-EGFR monoclonal antibody
B5: the binding result in assay [3] is recorded as “no binding”.

B6: Anti-EGFR-Fc1-D1-Fc2 (bispecific antibody, human IgG1, kappa)
heavy: not shown
light: EIVLTQSPDFQSVTPKEKVTITCRASQSIGTNIHWYQQKPDQSPKLLIKYASESISGIPSRFSGSGSGTDFTLTINSLEAEDAATYYCQQNNEWPTSFGQGTKLEIKRTVAAPSVFIFPPSDEQLKSGTASVVCLLNNFYPREAKVQWKVDNALQSGNSQESVTEQDSKDSTYSLSSTLTLSKADYEKHKVYACEVTHQGLSSPVTKSFNRGEC
chain: not shown
notes: Knobs-into-holes heterodimer; left arm is the JMT101 half antibody; also called Anti-EGFR-Fc1-D1-Fe2
As for B6, in assay [1], the “toxic side effects caused by NK cells (ADCC on NK92MI-CD16a cells), reduction against the D1^m proteins” value is ≥ 1000 fold. The molecule also came in with a concentration for a half-maximal effect (EC50) in assay [3] of 0.0939 µg/mL.

B7: Anti-EGFR-Fc1-D1-D2-Fc2 (bispecific antibody, human IgG1, kappa)
heavy: not shown
light: EIVLTQSPDFQSVTPKEKVTITCRASQSIGTNIHWYQQKPDQSPKLLIKYASESISGIPSRFSGSGSGTDFTLTINSLEAEDAATYYCQQNNEWPTSFGQGTKLEIKRTVAAPSVFIFPPSDEQLKSGTASVVCLLNNFYPREAKVQWKVDNALQSGNSQESVTEQDSKDSTYSLSSTLTLSKADYEKHKVYACEVTHQGLSSPVTKSFNRGEC
chain: not shown
With B7, the “toxic side effects caused by NK cells (ADCC on NK92MI-CD16a cells), reduction against the D1^m proteins” value in assay [1] was ≥ 1000 fold.

B8: Anti-EGFR-Fc1-D1-D2-D3-Fc2 (bispecific antibody, human IgG1, kappa)
heavy: not shown
light: EIVLTQSPDFQSVTPKEKVTITCRASQSIGTNIHWYQQKPDQSPKLLIKYASESISGIPSRFSGSGSGTDFTLTINSLEAEDAATYYCQQNNEWPTSFGQGTKLEIKRTVAAPSVFIFPPSDEQLKSGTASVVCLLNNFYPREAKVQWKVDNALQSGNSQESVTEQDSKDSTYSLSSTLTLSKADYEKHKVYACEVTHQGLSSPVTKSFNRGEC
chain: not shown
For B8, the “toxic side effects caused by NK cells (ADCC on NK92MI-CD16a cells), reduction against the D1^m proteins” value in assay [1] was ≥ 1000 fold.

B9: Anti-EGFR-Fc1-D1^m-Fc2 (bispecific antibody, human IgG1, kappa)
heavy: not shown
light: EIVLTQSPDFQSVTPKEKVTITCRASQSIGTNIHWYQQKPDQSPKLLIKYASESISGIPSRFSGSGSGTDFTLTINSLEAEDAATYYCQQNNEWPTSFGQGTKLEIKRTVAAPSVFIFPPSDEQLKSGTASVVCLLNNFYPREAKVQWKVDNALQSGNSQESVTEQDSKDSTYSLSSTLTLSKADYEKHKVYACEVTHQGLSSPVTKSFNRGEC
chain: not shown
notes: Knobs-into-holes heterodimer
As for B9, the binding result in assay [3] is on record as “binds”.

B10: Anti-EGFR-Fc1-D1^m-D2-Fc2 (bispecific antibody, human IgG1, kappa)
heavy: not shown
light: EIVLTQSPDFQSVTPKEKVTITCRASQSIGTNIHWYQQKPDQSPKLLIKYASESISGIPSRFSGSGSGTDFTLTINSLEAEDAATYYCQQNNEWPTSFGQGTKLEIKRTVAAPSVFIFPPSDEQLKSGTASVVCLLNNFYPREAKVQWKVDNALQSGNSQESVTEQDSKDSTYSLSSTLTLSKADYEKHKVYACEVTHQGLSSPVTKSFNRGEC
chain: not shown
notes: Knobs-into-holes heterodimer
Consider B10, for which the binding result in assay [3] is listed as “binds”.

B11: Anti-CD20 mAb (Ofatumumab) (antibody, human IgG1, kappa)
heavy: not shown
light: not shown
notes: also called Anti-CD20 (Ofatumumab)
As for B11, the binding result in assay [3] and in assay [2] was “no binding” in each case. Further, in assay [4], the “Maximum average fluorescence intensity” value came out at 3500.

B12: Anti-CD47 mAb (Hu5F9-G4) (antibody, human IgG4 S228P, kappa)
heavy: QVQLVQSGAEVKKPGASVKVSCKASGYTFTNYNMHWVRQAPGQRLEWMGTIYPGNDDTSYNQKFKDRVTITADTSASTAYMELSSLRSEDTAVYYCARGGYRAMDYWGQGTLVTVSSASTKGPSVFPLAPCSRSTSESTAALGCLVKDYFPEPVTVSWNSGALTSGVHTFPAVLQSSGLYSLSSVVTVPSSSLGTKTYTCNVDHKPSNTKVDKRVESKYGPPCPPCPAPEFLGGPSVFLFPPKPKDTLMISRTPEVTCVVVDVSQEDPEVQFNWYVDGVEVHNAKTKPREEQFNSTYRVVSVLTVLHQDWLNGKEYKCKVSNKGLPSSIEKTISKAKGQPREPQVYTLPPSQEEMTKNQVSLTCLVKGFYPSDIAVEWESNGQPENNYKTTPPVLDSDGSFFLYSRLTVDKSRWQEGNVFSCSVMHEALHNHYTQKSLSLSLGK
light: DIVMTQSPLSLPVTPGEPASISCRSSQSIVYSNGNTYLGWYLQKPGQSPQLLIYKVSNRFSGVPDRFSGSGSGTDFTLKISRVEAEDVGVYYCFQGSHVPYTFGQGTKLEIKRTVAAPSVFIFPPSDEQLKSGTASVVCLLNNFYPREAKVQWKVDNALQSGNSQESVTEQDSKDSTYSLSSTLTLSKADYEKHKVYACEVTHQGLSSPVTKSFNRGEC
notes: also called anti-CD47 antibody; Hu5F9-64
Regarding B12, the EC50 in assay [3] stood at 0.00544 µg/mL; in assay [5], 0.258 nM; in assay [6] it was 0.865 nM; in assay [7], 0.456 nM; in assay [4], 0.286 nM; in assay [8], 0.387 nM. For the same molecule, in assay [4], the “Maximum average fluorescence intensity” value was found to be 120000.

As a reminder, the EC50 is the concentration needed to bring the measured effect to its halfway point. Low values mean a more potent agent, high ones a less potent agent.
